Reference: the supplement of paper PMC9170038

Tested on: MS2 coat protein
Experiment: apparent KD of MS2 coat protein; designed switch direction (-1 OFF switch, 1 ON switch): -1; higher = weaker reporter binding
Outline: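 Designed RNA switches with common flanks were made on Illumina chips by stalled E. coli RNA polymerase. Titration with SNAP-549-labelled MS2 coat protein doubled from 0.7 or 1.5 nM up to 3 µM. Apparent KD is each design's median over clusters after curve-fitting normalised fluorescence.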

[1] = input ligand: microRNA oligo, concentration not stated
[2] = Eterna round: R95, input ligand: FMN 200 uM
[3] = Eterna round: R95, input ligand: microRNA oligo, concentration not stated
[4] = Eterna round: R95, input ligand: none

Sequence	apparent KD of MS2 coat protein (input ligand: FMN 200 uM) [µM]	apparent KD of MS2 coat protein [1] [µM]	apparent KD of MS2 coat protein (input ligand: none) [µM]	apparent KD of MS2 coat protein [2] [µM]	apparent KD of MS2 coat protein [3] [µM]	apparent KD of MS2 coat protein [4] [µM]
AGCUAGUCAGGAUAUACAAACAUGUCAAAAGACGUGAAGAGACAUGAGGAUCACCCAUGUAGAAGGGACUAGCA [Mat - Exclusion 2 - JL mod - D13] (Eterna round: R96, puzzle: Exclusion 2)	0.0881	0.0157	0.0229	–	–	–
AGCUAGUGAGGAUAUACGAACAUGUCAAAAGACUGUAAGGGACAUGAGGAUCACCCAUGUAGAAGGCACUAGCA [Diamond 55] (Eterna round: R96, puzzle: Exclusion 2)	–	0.0324	–	–	–	–
AGCUAUGCCGAGGAUAUCGGCUGGAUAAGACACUGAGAAGGCGGGACAUGAGGAUCACCCAUGUGAACCUAUAU [Eternabot (L1) Solution 30] (Eterna round: R97, puzzle: Exclusion 6)	0.0273	–	0.0302	–	–	–
AGCUGUGGCCAAGGAUAUCUAACCUUAAAUACCGACGUAUAGUCGGACAUGAGGAUCACCCAUGUGGAGAAGGUGGUCUCAGCA [Eli eng2 - 043] (Eterna round: R96, puzzle: Exclusion NG 2)	–	0.0183	–	–	–	–
AGCUGUGGCCGAGGAUAUCUACAUGAGGAUCACCCAUGUGGGUGAAAUAUCGGGAAAACCUCGAUGGAGAAGGCGGUCUCAGCA [Eli eng2 - 046] (Eterna round: R96, puzzle: Exclusion NG 2)	0.849	0.234	0.263	–	–	–
AGCUGUGGCCGAGGAUAUCUGAAACUCAAAACCGAAAUAUAAUCGGACAUGAGGAUCACCCAUGUAGAGAAGGCGGUCUCAGCA [Eli eng2 - 079] (Eterna round: R96, puzzle: Exclusion NG 2)	–	0.126	–	–	–	–
AGCUUUUUGCUCGUCUUAUACAUGAGGAUCACCCAUGUAUUGGACCACAUCGAUAGAUGUGGACCAAGAAGCAUGGU [Omdei Mir OFFv1 C3] (Eterna round: R97, puzzle: Sensor, turn-off variant 1)	0.0468	–	0.0452	–	–	–
AGGAAUCUAGGAUAUAUAUGAAACGAUCCAGAUUCAAGGAAACAUGAGGAUCACCCAUGUAGAAGGAGAGAAAA [EX2 A.17] (Eterna round: R97, puzzle: Exclusion 2)	0.0234	–	0.0215	–	–	–
AGGACAUGAGGAUCACCCAUGUAGUGAGGUGUAUCCGAAGACGAGGAUAUACAGAGGAAAUAUCUGUAGAAGGUGUUAUAAAUU [Atleusan] (Eterna round: R96, puzzle: Exclusion NG 3)	0.726	0.229	0.766	–	–	–
AGGAGUAGUAUCCGAUCCUACAUGAGGAUCACCCAUGUAGCUAGACGUGCACGCGAUGCUCGUCAGACUACCAGAUG [salish99_TOv1_r3_034] (puzzle: Sensor v3, turn-off variant 1)	–	–	–	0.0994	0.116	0.143
AGGAUCCUAGGAUAUGCUGGGUAUCGCUGUCGGAGGGACAGACAUGAGGAUCACCCAUGUAGAAGGAGGCGCUC [Eternabot (L1) Solution 5] (Eterna round: R97, puzzle: Exclusion 2)	3.68	–	0.667	–	–	–
AGGAUGUUAGGAUAUCGAAGGUUGUGGCAGGCGGGAAUUUGCGAGAAGGAACAUGAGGAUCACCCAUGUGAAAU [JR_Exclu4_Sub044] (puzzle: Exclusion 4)	–	–	–	–	0.0197	–
AGGGAGUAAGGAUAUCGGAAAGGACACGAAAGUGACAAAGACGAGAAGGUACAUGAGGAUCACCCAUGUAAAAA [milkweed 24] (Eterna round: R96, puzzle: Exclusion 4)	–	0.0182	–	–	–	–
AGGGCUGCUCAGGAUAUCCGUAAAAGCCGAAAAGGAGAAGGGAGCACAUGAGGAUCACCCAUGUGAUCCUAAAA [Orbemaored] (puzzle: Exclusion 6)	–	–	–	0.028	0.0146	0.0155
AGGUAACAUGAGGAUCACCCAUGUCAGGAUAUCAGUAAGAGGAGGAUAGAAUAGAGUAUGAGAAGGGACUAUAU [Excluse me! 23 - Jieux - Exclusion 1] (puzzle: Exclusion 1)	–	–	–	0.048	0.0407	0.0478
AGGUAACAUGAGGAUCACCCAUGUCAGGAUAUCAUGAAGAGUAGAUUAGAGGAGAGGUUGAGAAGGGACUAUAU [Excluse me! 15 - Jieux - Exclusion 1] (puzzle: Exclusion 1)	–	–	–	–	0.0385	–
AGGUAGCAAGGAUAUACAACUUUGGGCACUGCCUCUUGGAGACAUGAGGAUCACCCAUGUAGAAGGUGCAGGCC [Tibiarusor] (puzzle: Exclusion 2)	–	–	–	–	0.0117	–

Sequence	apparent KD of MS2 coat protein (input ligand: FMN 200 uM) [µM]	apparent KD of MS2 coat protein [1] [µM]	apparent KD of MS2 coat protein (input ligand: none) [µM]	apparent KD of MS2 coat protein [2] [µM]	apparent KD of MS2 coat protein [3] [µM]	apparent KD of MS2 coat protein [4] [µM]
AGGUAGUCAGGAUAUUAAGAGUAGCGGGAUAACGCUACGAGUGAGAAGGGACAUGAGGAUCACCCAUGUUUAUU [JR_Ex4_Sub070] (Eterna round: R97, puzzle: Exclusion 4)	0.023	–	0.0248	–	–	–
AGGUCAUUAGGAUAUGUCGAAUAUGACAUGAGGAUCACCCAUGUGGUAGGCAUGUCGUAGACAGAAGGAGUGUAAA [Laqureis] (Eterna round: R97, puzzle: Exclusion 5)	0.219	–	0.0759	–	–	–
AGGUCCUUCUGGAGACAUGAGGAUCACCCAUGUCGAGUCAGCGAGGAUAUCGGUAAGACAUGUGAUGAGAAGGCGCAGACCGAU [Ex NG3 #43] (Eterna round: R96, puzzle: Exclusion NG 3)	0.0172	0.0119	0.0127	–	–	–
AGGUCCUUCUGGAGACAUGAGGAUCACCCAUGUCGAGUCAGCGAGGAUAUCGGUUAAUAAUGUGAUGAGAAGGCGCGGACCGAU [Ex NG3 #54] (Eterna round: R96, puzzle: Exclusion NG 3)	0.0415	0.0116	0.0193	–	–	–
AGGUGACAUGAGGAUCACCCAUGUAAGGAUAUACGGUUAGUGGAGAGAGGGAAAAGAGGUAGAAGGUACGGAGC [JR_Exclu1_Sub057] (puzzle: Exclusion 1)	–	–	–	–	0.156	–
AGGUGACAUGAGGAUCACCCAUGUAAGGAUAUACGGUUAGUGGAGAGAGGGAAGAGAGGUAGAAGGUACGGAGC [JR_Exclu1_Sub058] (puzzle: Exclusion 1)	–	–	–	0.24	0.227	0.316
AGGUGAUAUCUGUCGAUGGACAUGAGGAUCACCCAUGUGAGCUUUUUGCUCGUCUUAUAAACCGGUGACAGACCUUC [Sensor v3, turn-off variant 1 (MOD of Zalaso)] (puzzle: Sensor v3, turn-off variant 1)	–	–	–	0.0498	0.0206	0.0694
AGGUGCUUCAGGAGACAUGAGGAUCACCCAUGUUGAGUUAGCGAGGAUAUCGGUAACCCUUGUGAUGAGAAGGCGCAAACCAGU [Ex NG3 #45] (Eterna round: R96, puzzle: Exclusion NG 3)	0.0395	0.0144	0.0291	–	–	–
AGGUGCUUCUGGAGACAUGAGGAUCACCCAUGUUGAGUUAGCGAGGAUAUCGGUAAGGCAUGUGAUGAGAAGGCGCAAACCGAU [Ex NG3 #49] (Eterna round: R96, puzzle: Exclusion NG 3)	0.0506	0.0355	0.0495	–	–	–
AGGUGUAGAGGAUAUUGAGUUCUUUACAUGAGGAUCACCCAUGUCCUGGGCACCCAGGACCAAGAAGGCUACACCA [Omei Ex5 D31] (Eterna round: R97, puzzle: Exclusion 5)	0.0384	–	0.0726	–	–	–
AGUAACCGUCACGAAAGUGAUGGUUACACAAGCAAAUGUACAUGAGGAUCACCCAUGUCCUCAAUUGCUCGUCUUAU [Sensor 3 - 50] (puzzle: Sensor v3, turn-off variant 2)	–	–	–	0.106	0.165	0.137
AGUAACUAUCACGAAAGUGAUAGUUACAAAACAAGUGAAACAUGAGGAUCACCCAUGUCCUCAUUUGCUCGUCUUAU [Sensor 3 - 2] (puzzle: Sensor v3, turn-off variant 2)	–	–	–	0.118	0.257	0.189
AGUAACUAUCACGAAAGUGAUAGUUACAAACAAGUGGAAACAUGAGGAUCACCCAUGUCCUCAUUUGCUCGUCUUAU [Sensor 3 - 6] (puzzle: Sensor v3, turn-off variant 2)	–	–	–	0.574	0.556	0.503
AGUAACUAUCACGAAAGUGAUAGUUACAACAAGUGAUAAACAUGAGGAUCACCCAUGUCCUCAUUUGCUCGUCUUAU [Sensor 3 - 9] (puzzle: Sensor v3, turn-off variant 2)	–	–	–	0.256	0.283	0.326
AGUAACUAUCACGAAAGUGAUAGUUACAAUAGCAGUGAAACAUGAGGAUCACCCAUGUCCUCAUUUGCUCGUCUUAU [Sensor 3 - 23] (puzzle: Sensor v3, turn-off variant 2)	–	–	–	0.0496	0.566	0.0612
AGUAACUAUCACGAAAGUGAUAGUUACGCAAGCAGUGAAACAUGAGGAUCACCCAUGUCCUCAUUUGCUCGUCUUAU [Sensor 3 - 26] (puzzle: Sensor v3, turn-off variant 2)	–	–	–	0.0539	0.435	0.0486
AGUACUAACACGAGAGUGUUAGUACUAUAAGCUUGUGUUACAUGAGGAUCACCCAUGUCCUCAUAAGCUCGUCUUAU [Mat - Sensor v3 - Turn-off var 2 - D79] (puzzle: Sensor v3, turn-off variant 2)	–	–	–	0.124	0.0405	0.116
